Consider 2 molecules from PMC9687425, “Global Regulator AdpA_1075 Regulates Morphological Differentiation and Ansamitocin Production in Actinosynnema pretiosum subsp. auranticum”.

The target in series [1] is T1, AdpA_1075 (Actinosynnema pretiosum subsp. …, UniProt A0A290Z1C2 1-322).
T1 sequence: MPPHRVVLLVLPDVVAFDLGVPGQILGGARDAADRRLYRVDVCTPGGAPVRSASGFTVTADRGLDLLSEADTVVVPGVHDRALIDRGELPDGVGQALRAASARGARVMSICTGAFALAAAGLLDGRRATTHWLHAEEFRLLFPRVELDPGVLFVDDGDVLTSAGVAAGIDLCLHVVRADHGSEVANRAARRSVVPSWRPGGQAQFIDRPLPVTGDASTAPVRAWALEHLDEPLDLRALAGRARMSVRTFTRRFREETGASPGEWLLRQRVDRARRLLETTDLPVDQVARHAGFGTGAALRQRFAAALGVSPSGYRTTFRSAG
Put plainly: EMSA; protein concentration-dependent shift; excess unlabeled specific DNA competes; Beyotime Chemiluminescent EMSA Kit (buffer, salt and pH not stated); 20 ng biotin-labeled probe, 10 min at room temperature, 5% polyacrylamide gel. The note with it: protein: recombinant; tags: His6 (pET-28a NdeI/HindIII; the reverse primer keeps the stop codon, so N-terminal tag; named AdpA_1075-His6 in the text); chain copies: 2; label: 5' biotin on strand 1; blunt. On the technique in general: In EMSA bound probe runs differently from free probe, usually more slowly.

Series [2] deals with T1, AdpA_1075. Put plainly: EMSA; shifted with 1000 nM protein; excess unlabeled specific DNA competes; Beyotime Chemiluminescent EMSA Kit (buffer, salt and pH not stated); 20 ng biotin-labeled probe, 10 min at room temperature, 5% polyacrylamide gel. The note with it: protein: recombinant; tags: His6 (pET-28a NdeI/HindIII; the reverse primer keeps the stop codon, so N-terminal tag; named AdpA_1075-His6 in the text); chain copies: 2; label: 5' biotin on strand 1; blunt.

B1: PssgA (dsDNA)
DNA 1: GTGTTGGCCGGAACCACGGTGTTGGCCGGAACCACGGTGTTGGCCGGAACCACG
DNA 2: CGTGGTTCCGGCCAACACCGTGGTTCCGGCCAACACCGTGGTTCCGGCCAACAC
For the molecule B1, the binding result in series [1] is “binds”.

B2: Pasm28 (dsDNA)
DNA 1: CGCAGTGGCCCGAACGGGTCCGCAGTGGCCCGAACGGGTCCGCAGTGGCCCGAACGGGTC
DNA 2: GACCCGTTCGGGCCACTGCGGACCCGTTCGGGCCACTGCGGACCCGTTCGGGCCACTGCG
With B2, the binding result in series [2] is “binds”.
